Where “and” joins values, the source holds several entries; their conditions need not be identical. Identical values can stand only once.
Molecular target: the molecule itself
Assay: SEC

B1: Recombinant His6-Sec18p (enzyme, S. cerevisiae, UniProt P18759 1-758, looked up)
chain: MFKIPGFGKAAANHTPPDMTNMDTRTRHLKVSNCPNNSYALANVAAVSPNDFPNNIYIIIDNLFVFTTRHSNDIPPGTIGFNGNQRTWGGWSLNQDVQAKAFDLFKYSGKQSYLGSIDIDISFRARGKAVSTVFDQDELAKQFVRCYESQIFSPTQYLIMEFQGHFFDLKIRNVQAIDLGDIEPTSAVATGIETKGILTKQTQINFFKGRDGLVNLKSSNSLRPRSNAVIRPDFKFEDLGVGGLDKEFTKIFRRAFASRIFPPSVIEKLGISHVKGLLLYGPPGTGKTLIARKIGTMLNAKEPKIVNGPEILSKYVGSSEENIRNLFKDAEAEYRAKGEESSLHIIIFDELDSVFKQRGSRGDGTGVGDNVVNQLLAKMDGVDQLNNILVIGMTNRKDLIDSALLRPGRFEVQVEIHLPDEKGRLQIFDIQTKKMRENNMMSDDVNLAELAALTKNFSGAEIEGLVKSASSFAINKTVNIGKGATKLNTKDIAKLKVTREDFLNALNDVTPAFGISEEDLKTCVEGGMMLYSERVNSILKNGARYVRQVRESDKSRLVSLLIHGPAGSGKTALAAEIALKSGFPFIRLISPNELSGMSESAKIAYIDNTFRDAYKSPLNILVIDSLETLVDWVPIGPRFSNNILQMLKVALKRKPPQDRRLLIMTTTSAYSVLQQMDILSCFDNEIAVPNMTNLDELNNVMIESNFLDDAGRVKVINELSRSCPNFNVGIKKTLTNIETARHDEDPVNELVELMTQSA
For B1, the “stoichiometry N” value was 6 and 2.

From article PMC5023487 (Traffic (Copenhagen, Denmark), 2016)
